The results in this text go back to patent publication US20140193401A1.

Assay [1] concerns the target PTx-S1-220 R79A (Bordetella pertussis) (UniProt P04977).
Assay [2] has the same target. The experiment in a line: ELISA, hu1B7 as primary antibody; EC50 as percent of the PTx reference.
Assay [3] deals with PTx-S1E (residues 1-220, D34E, S162P, I198M) (Bordetella pertussis) (UniProt Q7WDU8). The assay is described as follows: SPR (BIAcore 3000), mAb 1B7 immobilised on CM5 chip, toxin injected. On the technique in general: SPR reads the build-up and loss of mass on a sensor chip optically.
The target in assay [4] is pertussis toxin holotoxin (Bordetella pertussis) (UniProt P04977). The experiment in a line: competition ELISA (Friguet), 5 nM antibody with PT in solution, coated PT. (In an ELISA, binding on a coated surface is turned into a signal by an enzyme label.)
Assay [5] shares this target. The assay is described as follows: cell-based or functional assay.

The substance “hu1B7 scAb (humanized 1B7 single-chain Fv with C-terminal human kappa constant domain) (scFv)” registered a % EC50 PTx in assay [1] of 1%. The substance also came in with a % EC50 PTX in assay [2] of 1%.
In assay [3], murine monoclonal antibody 1B7 yielded a koff of 0.0018 s⁻¹.
With murine monoclonal antibody 11E6, the Kd in assay [4] is 20 nM. Also, the In Vitro Neutralization (nM), minimum protective concentration, CHO clustering assay in assay [5] worked out at 5.2 nM.

By koff is commonly meant a measure of how fast the partners let go of each other. A word on the Kd: it is a measure of binding affinity in units of concentration. Lower therefore signals tighter binding.
